Measured values as given in patent WO2009138494A2 (dated 2009).

T1: recombinant murine TLR2/Fc chimera, R&D Systems cat no: 1530-TR (murine, UniProt Q9QUN7 25-587)
T1 construct: Bought Fc chimera, coated on ELISA plates; also called mTLR2/Fc; mTLR2; not shown: Fc part of the chimera
T1 sequence (looked up): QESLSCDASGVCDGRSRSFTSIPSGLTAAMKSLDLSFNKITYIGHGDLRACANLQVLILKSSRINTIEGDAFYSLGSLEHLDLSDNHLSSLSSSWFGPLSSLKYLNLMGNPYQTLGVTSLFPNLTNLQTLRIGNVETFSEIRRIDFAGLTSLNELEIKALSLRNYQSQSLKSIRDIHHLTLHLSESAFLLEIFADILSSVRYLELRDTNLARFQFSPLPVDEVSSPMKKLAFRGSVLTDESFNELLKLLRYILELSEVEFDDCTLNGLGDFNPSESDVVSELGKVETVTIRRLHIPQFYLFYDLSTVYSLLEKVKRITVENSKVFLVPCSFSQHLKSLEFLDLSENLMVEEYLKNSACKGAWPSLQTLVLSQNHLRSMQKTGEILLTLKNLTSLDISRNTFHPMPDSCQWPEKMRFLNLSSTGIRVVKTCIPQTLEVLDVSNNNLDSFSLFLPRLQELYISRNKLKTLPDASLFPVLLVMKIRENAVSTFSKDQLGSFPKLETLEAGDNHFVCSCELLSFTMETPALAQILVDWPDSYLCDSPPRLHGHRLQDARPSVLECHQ


What follows are binders tested against T1, recombinant murine TLR2/Fc chimera, R&D … (assay: ELISA: TLR coated at 2 ug/ml, periplasmic extract of the clone, anti-VHH detection, OD against no-Nanobody control).

Row | Binder | binding result
1 | 172-B3 (VHH, not shown: C-terminal c-myc tag and (His)6 tag coded by the vector) VHH: VQLVKSGGGGLVQAGGSLRLSCAASGRTFSRYVMGWFRQAPGKEREFVAVINRSGGSTDYAASVKGRFTIARDNAKNTVYLEMTSLEPEDTAVYYCAAGEYYTGSSSRYDHWGQGTPVTVSS | binds
2 | 161-H4 (VHH, not shown: C-terminal c-myc tag and (His)6 tag coded by the vector) VHH: EVQLVESGGGLVQAGGSLRLSCAASGRPDSSYFMGWFRQAPGKEFEFVSRINWIGSNTAYADSVKGRFTISRDNAKNTVYLQMNSLKPEDTAVYFCVATTINSFNSGNYKDPRLWTYWAQGTQVTVSS | binds
3 | 172-A1 (VHH, not shown: C-terminal c-myc tag and (His)6 tag coded by the vector) VHH: EVQLVESGGGLVQAGGSLRLSCTASGRTFSSFVMGWFRQAPGKEREFVAYITLRGGDSPLYADSVKDRFTISRDIAKNLVYLQMNSLKPEDTAVYYCAARYSGGSVYRNDYAYWGQGTQVTVSS | binds
4 | 161-F4 (VHH, not shown: C-terminal c-myc tag and (His)6 tag coded by the vector) VHH: EVQLVESGGGLVQPGGSLRLSCAASGSIGSGDAMGWYRQPPGKQRERVATITSGGLTVYTESVKGRFAISRDNAKNTVYLQMNSLKPEDTAVYYCNTVNYRVGWGPGTQVTVSS | binds
5 | 161-E2 (VHH, not shown: C-terminal c-myc tag and (His)6 tag coded by the vector) VHH: EVQLVESGGGLVQAGGSLRLSCAASGRAFSSYVMGWFRQTPGKEREFVSVINWSGGSTDYSSSVKGRFTISRDNAKNTVYLQMTSLEPEDTAVYYCAAGQYYTGRSDRYDYWGQGTPVTVSS | binds
6 | 161-H1 (VHH, not shown: C-terminal c-myc tag and (His)6 tag coded by the vector) VHH: EVQLVESGGGLVQAGGSLRLSCAPSRRTFSTYVMGWFRQAPGMEREFVSAISWSSGSTRYADSVKGRFTISRDSVKNTMYLQMNSLKPEDTAVYYCAAGASFGSIFWESAREYNYWGQGTQVTVSS | binds
7 | 172-C1 (VHH, not shown: C-terminal c-myc tag and (His)6 tag coded by the vector) VHH: EVQLVESGGGLVQAGGSLRLSCAASELAFDFDGYNFAWVRQAPGREREFVSVINRSGGSTDYASSVKGRFTISRDNAKNTVYLQMTSLEPEDTAVYYCAAGPYYTGSSDRYDYWGQGTPVTVSS | binds
8 | 161-A11 (VHH, not shown: C-terminal c-myc tag and (His)6 tag coded by the vector) VHH: EVQLVESGGGLVQAEGSLRLSCVASGRTFDTYVMGWFRQAPGKEREFVAAINRSGVTDYPDSATGRFTISRENAKNTVYLQGTSLKPEDTGVYYCAARKAFYYGTSSYPNDYAHWGQGTQVTVSS | binds
9 | 172-F7 (VHH, not shown: C-terminal c-myc tag and (His)6 tag coded by the vector) VHH: EVQLVESGGGLVQAGGSLRLSCAASGRTFSRYVMGWFRQAPGKEREFVAVINWSGGSTDYSTYVKGRFTIFRDNAKNTVFLEMTSLEPEDTAVYYCAAGEYYTGDSSRYDHWGQGTPVTVSS | binds
10 | 161-E1 (VHH, not shown: C-terminal c-myc tag and (His)6 tag coded by the vector) VHH: EVQLVESGGGLAQAGGSLRLSCAASGRTFSRYVMGWFRQAPGKEREFVSVINRSGGSTDYSTYVKGRFTIFRDNAKNTVFLEMTSLEPEDTAVYYCAAGEYYTGDSSRYDHWGQGTPVTVSS | binds
11 | 172-G3 (VHH, not shown: C-terminal c-myc tag and (His)6 tag coded by the vector) VHH: EVQLVKSGGGLVQAGGSLRLSCAASGRTFSRYIMGWFRQAPGKEREFVAVINRSGGSTDYASSVKGRFTISRDNAKNTVYLEMTSLEPEDTAVYYCAAGEYYTGSSSRYDHWGQGTPVTVSS | binds
12 | 172-B7 (VHH, not shown: C-terminal c-myc tag and (His)6 tag coded by the vector) VHH: EVQLVESGGGLVQAGGSLRLSCAASGRTFSSYVMGWFRQAPGKEREFVSVINRSGGSTDYASSVKGRFTISRDNAKNTVYLEMTSLEPEDTAVYYCAAGEYYTGISSRYDYWGQGTPVTVSS | binds
13 | 172-A12 (VHH, not shown: C-terminal c-myc tag and (His)6 tag coded by the vector) VHH: EVQLVESGGGLVQAGGSLRLSCAASGRTFSRYVMSWFRQAPGKEREFVAVINWSGGSTDYSTSVKGRFTIFRDNAKNTVYLETTSLELEDTAVYYCAAGEYYTGASSRYDHWGQGTPVTVSS | binds
14 | 172-C6 (VHH, not shown: C-terminal c-myc tag and (His)6 tag coded by the vector) VHH: EVQLVESGGGVVQAGGSLSLSCAASGRTLSVYAMGWFRQAPGKEREFVATISVSGVYTYYTDSVKARFTISRDNAKNTVYLQMNSLKPEDTAVYYCAAGSKPTFLGSSYDYWGQGTQVTVSS | binds
15 | 161-F2 (VHH, not shown: C-terminal c-myc tag and (His)6 tag coded by the vector) VHH: EVQLVESGGGLVQAEGSLRLSCVASGPTFDTYVMGWFRQAPGKEREFVAAINRSGSTDYPDYWDSAKGRFTISRDNAKNTVYLQMTSLRPEDTGVYYCAARKTFYFGTSSYPNDYAYWGQGTQVTVSS | binds
16 | 172-E5 (VHH, not shown: C-terminal c-myc tag and (His)6 tag coded by the vector) VHH: EVQLVESGGGLVQTGGSLRLSCAASGSTFSNAVMGWFRQAPGKEREFVARITWNGGSTYYGDSAKGRFTISRDNAKTTAYLLMNSLQPEDTANYFCAARMRPVFYSTSGQESFYDYWGQGTQVTVSS | binds
17 | 161-A3 (VHH, not shown: C-terminal c-myc tag and (His)6 tag coded by the vector) VHH: EVQLVESGGGLVQTGGSLRLSCAASGSTFSKAVMGWFRQAPGKEREFVARITWNGGSTYYGDSAKGRFTISRDIGKTTAYLLMNSLQPEDTANYFCAARMRPVFSSSSVQESFYDYWGQGTQVTVSS | binds
18 | 172-F11 (VHH, not shown: C-terminal c-myc tag and (His)6 tag coded by the vector) VHH: EVQLVESGGGLVQTGGSLRLSCAASGSTFSRAVMGWFRQAPGKEREFVARITWNGGSAYYGDSAKGRFTISRDNAKTTAYLLMNSLQPEDTANYFCAARMRPVSDSSSGQESFYDYWGQGTQVTVSS | binds
19 | 161-C9 (VHH, not shown: C-terminal c-myc tag and (His)6 tag coded by the vector) VHH: EVQLVESGGGLVQAEGSLRLSCVASGTHVMGWFRQASGKEREFVAAINRSGSTDYPDSADSAKGRFTISRDNAKNTVYLQMTSLKPEDTGVYYCAARKAFYFGTSSYPSDYAYWGQGTQVTVSS | binds
20 | 172-H4 (VHH, not shown: C-terminal c-myc tag and (His)6 tag coded by the vector) VHH: EVQLVESGGGLVQAGGSLRLSCAASGRTFDSYAMGWFRQAPGKEREFVAAIGYSGTYDADSVKGRFTISRDNAKKTTVYLQMNNLKPEDTAVYYCAAAGTFSTTVGTTTSHYDYWGQGTQVTVSS | binds
21 | 172-C9 (VHH, not shown: C-terminal c-myc tag and (His)6 tag coded by the vector) VHH: EVQLVESGGGLVQAGGSLRLSCAASGRTYSIDSMAWFRQAPGKERQFLGSILWSDDSTNYADSVKGRFTISRDNAKNTMYLQMGSLKPEDTAVYYCRSWDGRQVYWGQGTQVTVSS | binds

The binders below were run against T2, recombinant human TLR4/MD2 (rhTLR4/MD2), R&D Systems cat no: 3146-TM/CF (human, UniProt O00206 24-631; Q9Y6Y9 17-160, limits assumed) in the same assay as above.
T2 construct: Bought protein, coated on ELISA plates
T2 sequence (O00206 24-631 limits assumed, chain 1 of 2): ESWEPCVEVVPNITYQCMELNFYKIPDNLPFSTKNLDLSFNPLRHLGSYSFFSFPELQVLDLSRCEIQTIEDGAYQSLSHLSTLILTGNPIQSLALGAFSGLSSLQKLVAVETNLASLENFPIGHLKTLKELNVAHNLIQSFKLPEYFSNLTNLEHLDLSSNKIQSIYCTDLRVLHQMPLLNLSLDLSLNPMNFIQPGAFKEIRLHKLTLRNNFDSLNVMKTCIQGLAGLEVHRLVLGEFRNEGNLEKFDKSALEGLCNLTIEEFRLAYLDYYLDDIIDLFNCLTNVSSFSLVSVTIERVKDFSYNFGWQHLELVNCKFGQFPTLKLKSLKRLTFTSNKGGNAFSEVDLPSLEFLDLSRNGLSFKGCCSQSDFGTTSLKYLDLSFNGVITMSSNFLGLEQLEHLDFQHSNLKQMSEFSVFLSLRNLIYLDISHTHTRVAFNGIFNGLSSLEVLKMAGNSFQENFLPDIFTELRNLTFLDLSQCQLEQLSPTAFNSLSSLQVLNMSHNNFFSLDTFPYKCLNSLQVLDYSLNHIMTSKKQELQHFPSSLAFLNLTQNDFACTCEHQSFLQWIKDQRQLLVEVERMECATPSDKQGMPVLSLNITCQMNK
T2 sequence (Q9Y6Y9 17-160 limits assumed, chain 2 of 2): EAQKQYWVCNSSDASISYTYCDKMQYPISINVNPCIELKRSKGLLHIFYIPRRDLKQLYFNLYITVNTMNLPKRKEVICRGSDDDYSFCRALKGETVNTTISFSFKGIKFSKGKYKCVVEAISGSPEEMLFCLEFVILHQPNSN

Row | Binder | binding result
22 | 107-A7 (VHH, not shown: C-terminal c-myc tag and (His)6 tag coded by the vector) VHH: EVQLVESGGGLVQAGGSLRLSCVASGRTLSTVNMGWFRQAPGKERDIVARISGSSVSTYYAESVRGRFTISRDNAKNTVYLQMNSLRPEDTGVYYCVADSPGGRSYEYWGQGTQVTVSS | binds
23 | 107-C12 (VHH, not shown: C-terminal c-myc tag and (His)6 tag coded by the vector) VHH: EVQLVESGGGLVQAGGSLRLSCVASGRTLSTVNMGWFRQAPGKERDIVARISGSSISTYYAESVRGRFTISRDNAKNTVYLQMNSLRPEDTAVYYCVADSPGGRSYEYWGQGTQVTVSS | binds
24 | 107-A9 (VHH, not shown: C-terminal c-myc tag and (His)6 tag coded by the vector) VHH: EVQLVESGGGLVQAGGSLRLSCVASGRTLSTYNMGWFRQAPGKERDIVARISGSSVSTYYAESVRGRFTISRDNAKNTMYLQMNNLRPEDTAVYYCVADGPGGRSYEYWGQGTQVTVSS | binds
